# Key:
# human naive CD4+ T cells = assay: Differentiation of human naive CD4+ T cells into FOXP3+ CD4+ T cells (flow cytometry); assay type: cell-based; details: for increase of the percentage of FOXP3 expressing cells: average of 3 donors versus polarization control; for FOXP3 producing cells within the living CD4+ T cell population: range of 3 donors, control 17.7-43.6%, 5 days
# Protocol: For the differentiation of human naive CD4^+ T cells into FOXP3^+ CD4^+ T cells, human peripheral blood mononuclear cells were isolated from heparinized whole blood by standard density gradient centrifugation (Lymphoprep, Axis Shield, Oslo, Norway). Naive CD4^+ T cells were isolated using the Naive CD4^+ T cell Kit II (Miltenyi Biotec, Bergisch Gladbach, Germany) and by additional depletion of CD45RO^+ cells (CD45RO microbeads, Miltenyi Biotec). Cells were cultured in RPMI 1640 (Thermo Fisher Scientific, Waltham, Mass. USA) complete (10% FCS, Biochrom, Merck, Berlin, Germany; 2 mM L-glutamine, 100 U/mL Penicillin/Streptomycin, Thermo Fisher Scientific) in 24-well plates at a concentration of 1×10^6 cells/mL at 37° C. After isolation, cells were stimulated with plate-bound anti-CD3 (10 μg/mL; clone UCHT1, BD Biosciences) and 2 μg/mL anti-CD28 (clone CD28.2, BD Biosciences, 2 μg/mL) in solution and cultured for five days. To induce FOXP3 expression, the culture medium was supplemented with 50 U/mL rIL-2 (Novartis, Nurnberg, Germany) and 5 ng/mL TGF-01 (Promokine). Beneath this control, cells were cultured in the presence of different concentrations of Tofacitinib, Rapamycin (Sigma-Aldrich) and Cyclosporine A (Sigma-Aldrich). After three days of culture, half of the medium was removed and replaced by fresh RPMI 1640 complete, supplemented with the same doses of cytokines and agents as at day 0.
# After five days of culture, the cells were washed with ice-cold PBS and stained with LIVE/DEAD Fixable Aqua Dead Cell Stain Kit (Thermo Fisher Scientific) according to the manufacturer's protocol. Moreover the cells were stained 1:300 with anti-CD4-Alexa Flour700 (BioLegend) and 1:100 with anti-FOXP3-eFlour450 (eBiosciences, affymetrix, Frankfurt am Main, Germany) by using the FOXP3/Transcription Factor Staining Buffer Set (eBiosciences, affymetrix) according to manufacturer's protocol. The acquisition of cells was performed with BD FACSDIVA 7.0 on a BD
# LSR Fortessa (BD Biosciences). Data were analyzed with the software FlowJo (Tree Star, Ashland, Oreg.), the lymphocyte population was gated on CD4^+ cells and dead cells were excluded from the analysis.
# [1] = tested on: T cells (total splenocytes from wild type mice); assay: T cell stimulation in cell culture (viable cells by CellTiter-Glo); assay type: cell-based, mouse; details: Tofacitinib 50, 150, 500 ng/ml; IL-2/anti-CD3 low and high stimulation; 4 days
# Protocol: (§2) For the T and B cell stimulation spleen cell from wild type mice were isolated and cells were cultivated in 200 μl/well in RPMI complete in cell culture plates (100,000 cells/well). For T cell stimulation total splenocytes were incubated 4 days with 1 ng/ml II-2 and 1 pg/ml anti-CD3 (Low) or 5 ng/ml II-2 and 10 pg/ml anti-CD3 (High) and three varying concentrations of Tofacitinib 50 ng/ml, 150 ng/ml and 500 ng/ml. For B cell stimulation cells were stimulated 8 days by incubation with 1 pg/ml anti-CD40 and 1L4 1 ng/ml (Low) and with 1 pg/ml anti-CD40 and 5 ng/ml (High) and three varying concentrations of Tofacitinib 50 ng/ml, 150 ng/ml and 500 ng/ml. The number of viable cells was determined by CellTiter-Glo Assay (Promega) and IgE concentration in the supernatant was measured by ELISA.
# [2] = tested on: B cells (spleen cells from wild type mice); assay: B cell stimulation in cell culture (CellTiter-Glo; IgE ELISA of supernatant); assay type: cell-based, mouse; details: Tofacitinib 50, 150, 500 ng/ml, 8 days
# Protocol: as §2
# [3] = humans; cited from earlier work
# OVA-allergic mice [4] = assay: BAL cell infiltration by flow cytometry in OVA allergic airway inflammation / ASIT model; assay type: in vivo, mouse
# Protocol: For allergic sensitization and allergen-challenge, mice were treated twice by intraperitoneal injection of […] OVA (chicken ovalbumin, Sigma, Germany) and 0.5 mg aluminum hydroxide (alum; 40 mg magnesium/40 mg alum per ml; inject® ThermoFischer, Rockford, USA) in 200 μl phosphate buffered saline (PBS) at day (D) 1 and D-7 as previously described (Aguilar-Pimentel J A, Alessandrini F, Huster K M, Jakob T, Schulz H, Behrendt H, et al. Specific CD8 T cells in IgE-mediated allergy correlate with allergen dose and allergic phenotype, Am J Respir Crit Care Med 2010; 181:7-16, and Fuchs H, Gailus-Durner V, Adler T, Aguilar-Pimentel J A, Becker L, Calzada-Wack J, et al. Mouse phenotyping, Methods 2011; 53:120-35). […]
# Four experimental groups of mice each group consisting of 14 mice were analyzed in parallel (FIGS. 1 and 2): […]
# Flow cytometry was performed to quantify cell surface markers of BAL cells using the following monoclonal antibodies: anti-CD8a, anti-Lytic, anti-CD4, anti-CD62L, anti-CD3, anti-CD25, anti- GO, anti-CD19, anti-CD11 b, anti-CD11 c, and anti-MHC-II (Fuchs H, Gailus-Durner V, Adler T, Aguilar-Pimentel J A, Becker L, Calzada-Wack J, et al. Mouse phenotyping, Methods 2011; 53:120-35). Data were acquired using a LSRII flow cytometer (BD Bioscience) and further analyzed with FACSDiVa (BD Bioscience) and Flowjo V.7.2.2 (Tree star, Ashland, USA) software. […]
# OVA-allergic mice [5] = assay: Plasma immunoglobulins (total IgE ELISA, IgG1 MSD) after challenge in OVA allergic airway inflammation / ASIT model; assay type: in vivo, mouse
# Protocol: (§1) For allergic sensitization and allergen-challenge, mice were treated twice by intraperitoneal injection of […] OVA (chicken ovalbumin, Sigma, Germany) and 0.5 mg aluminum hydroxide (alum; 40 mg magnesium/40 mg alum per ml; inject® ThermoFischer, Rockford, USA) in 200 μl phosphate buffered saline (PBS) at day (D) 1 and D-7 as previously described (Aguilar-Pimentel J A, Alessandrini F, Huster K M, Jakob T, Schulz H, Behrendt H, et al. Specific CD8 T cells in IgE-mediated allergy correlate with allergen dose and allergic phenotype, Am J Respir Crit Care Med 2010; 181:7-16, and Fuchs H, Gailus-Durner V, Adler T, Aguilar-Pimentel J A, Becker L, Calzada-Wack J, et al. Mouse phenotyping, Methods 2011; 53:120-35). Subsequently, mice were challenged by inhalative exposure to OVA aerosol (1% in PBS) for 10 min once a day at D-49, 52 and 55. 24 h after the last challenge (D-56) blood samples were collected and animals sacrificed to obtain bronchoalveolar lavage (BAL) samples.
# For allergen-specific-immunotherapy (ASIT), animals were treated by subcutaneous injection of 1 mg OVA D-22, and 0.5 mg OVA D-29. For treatment with Tofacitinib, two doses per day were administrated on D-20 to D-24, and D-27 to D-31. […]
# OVA-allergic mice [6] = assay: Cytokine profile in BAL fluid (MSD multiplex) in OVA allergic airway inflammation / ASIT model; assay type: in vivo, mouse
# Protocol: as §1
# For allergen-specific-immunotherapy (ASIT), animals were treated by subcutaneous injection of 1 mg OVA D-22, and 0.5 mg OVA D-29. For treatment with Tofacitinib, two doses per day were administrated on D-20 to D-24, and D-27 to D-31.
# Flow cytometry was performed to quantify cell surface markers of BAL cells using the following monoclonal antibodies: anti-CD8a, anti-Lytic, anti-CD4, anti-CD62L, anti-CD3, anti-CD25, anti- GO, anti-CD19, anti-CD11 b, anti-CD11 c, and anti-MHC-II (Fuchs H, Gailus-Durner V, Adler T, Aguilar-Pimentel J A, Becker L, Calzada-Wack J, et al. Mouse phenotyping, Methods 2011; 53:120-35). Data were acquired using a LSRII flow cytometer (BD Bioscience) and further analyzed with FACSDiVa (BD Bioscience) and Flowjo V.7.2.2 (Tree star, Ashland, USA) software. Cytokines from BAL were analyzed by a multiplex measurement of proinflammatory cytokines from Meso Scale Discovery electrochemiluminescence assay (MSD, USA).
# OVA-allergic mice [7] = assay: Systemic (plasma) cytokine profile in OVA allergic airway inflammation / ASIT model; assay type: in vivo, mouse; details: after OVA-aerosol challenge
# Protocol: as §1, with “samples. […]” for “samples.”
# Mouse blood samples were collected before and after challenge as previously described (Aguilar-Pimentel J A, Alessandrini F, Huster K M, Jakob T, Schulz H, Behrendt H, et al. Specific CD8 T cells in IgE-mediated allergy correlate with allergen dose and allergic phenotype, Am J Respir Crit Care Med 2010; 181:7-16; Fuchs H, Gailus-Durner V, Adler T, Aguilar-Pimentel J A, Becker L, Calzada-Wack J, et al. Mouse phenotyping, Methods 2011; 53:120-35 and Fulton R J, McDade R L, Smith P L, Kienker L J, Kettman J R, Jr. Advanced multiplexed analysis with the FlowMetrix system, Clin Chem 1997; 43:1749-56) by puncturing the retro-orbital plexus (Li-heparin-coated tubes, KADE, Numbrecht, Germany) under isoflurane anesthesia. […] Plasma total IgE was measured using a classical immunoassay isotope-specific sandwich ELISA. […] Signal intensities of labeled total murine IgE were measured at 450 nm in a standard microwell ELISA reader and results reported in ng/ml based on a standard curve of purified IgE. […]
molecule,measurement,setting,value
CO[C@H]1C[C@@H]2CC[C@@H](C)[C@@](O)(O2)C(=O)C(=O)N2CCCC[C@H]2C(=O)O[C@H]([C@H](C)C[C@@H]2CC[C@@H](O)[C@H](OC)C2)CC(=O)[C@H](C)/C=C(\C)[C@@H](O)[C@@H](OC)C(=O)[C@H](C)C[C@H](C)/C=C/C=C/C=C/1C [Rapamycin],FOXP3 expression relative to control,human naive CD4+ T cells; concentration not given,1.3 fold
"C[C@@H]1CCN(C(=O)CC#N)C[C@@H]1N(C)c1ncnc2[nH]ccc12 [Tofacitinib, 3-((3R, 4R)-4-methyl-3-[methyl-(7H-pyrrolo[2,3-d]pyrimidin-4-yl)-amino]-piperidin-1-yl)-3-oxopropionitrile]",proliferation of T cells,[1],significantly decreased
same,proliferation of B cells,[2]; anti-CD40/IL4 low and high stimulation,significantly decreased
same,IgE production by B cells,"[2]; anti-CD40/IL4 stimulation, supernatant ELISA",decreased
same,increase of the percentage of FOXP3 expressing cells,human naive CD4+ T cells; 0.1 μM,about 2.4 (+/−0.7) fold
same,FOXP3 producing cells within the living CD4+ T cell population,human naive CD4+ T cells; 0.1 μM,57.2-77.1%
same,increase of the percentage of FOXP3 expressing cells,human naive CD4+ T cells; 1 μM,~2.5 (+/−1.3) fold
same,FOXP3 producing cells within the living CD4+ T cell population,human naive CD4+ T cells; 1 μM,51.1-70.6%
same,FOXP3-enhancing effect,human naive CD4+ T cells; 10 μM,diminished
same,cytotoxicity,"human naive CD4+ T cells; 10 μM, data not shown",induced cytotoxicity
same,mean terminal plasma half-life,[3],3.2 h
"OVA-ASIT: allergen-specific immunotherapy: subcutaneous injection of chicken ovalbumin (OVA) in OVA-sensitized mice (protein, UniProt P01012 2-386, looked up) Ovalbumin: GSIGAASMEFCFDVFKELKVHHANENIFYCPIAIMSALAMVYLGAKDSTRTQINKVVRFDKLPGFGDSIEAQCGTSVNVHSSLRDILNQITKPNDVYSFSLASRLYAEERYPILPEYLQCVKELYRGGLEPINFQTAADQARELINSWVESQTNGIIRNVLQPSSVDSQTAMVLVNAIVFKGLWEKAFKDEDTQAMPFRVTEQESKPVQMMYQIGLFRVASMASEKMKILELPFASGTMSMLVLLPDEVSGLEQLESIINFEKLTEWTSSNVMEERKIKVYLPRMKMEEKYNLTSVLMAMGITDVFSSSANLSGISSAESLKISQAVHAAHAEINEAGREVVGSAEAGVDAASVSEEFRADHPFLFCIKHIATNAVLFFGRCVSP",suppression of total broncho-alveolar lavage cell infiltration,"OVA-allergic mice [4]; compared to OVA-allergic mice, BAL 24 h after last challenge (D-56)",88%
same,eosinophil BAL cell infiltration,"OVA-allergic mice [4]; median [1st, 3rd quantile], OVA-allergic mice 81%, BAL at D-56",63.18%
same,total IgG1 levels,"OVA-allergic mice [5]; median [quantiles], OVA-allergic mice 0.8267 mg/ml",1.936 mg/mL
same,reduction of total IgE-levels,OVA-allergic mice [5]; versus OVA-allergic mice,43.5%
same,IFN-γ in BAL fluid,OVA-allergic mice [6]; barely detectable,marginally reduced
same,IL-2 in BAL fluid,OVA-allergic mice [6]; barely detectable,marginally reduced
same,IL-5 secretion in BAL,"OVA-allergic mice [6]; mouse, in vivo",increase
same,secretion of Th2-cytokine IL-4 in BAL,"OVA-allergic mice [6]; mouse, in vivo",reduced
same,inhibition of IL-1 beta secretion in BAL fluid,OVA-allergic mice [6]; versus OVA-allergic mice,80%
same,inhibition of IL-6 secretion in BAL fluid,OVA-allergic mice [6]; versus OVA-allergic mice,82%
same,inhibition of TNF-a secretion in BAL fluid,OVA-allergic mice [6]; versus OVA-allergic mice,84%
same,inhibition of chemokine CXCL1 in BAL fluid,OVA-allergic mice [6]; versus OVA-allergic mice,21%
same,effects on IL-2 plasma levels,OVA-allergic mice [7],no significant effects
same,inhibition of IL-1beta plasma levels,OVA-allergic mice [7],41%
same,reduction of IL-6 plasma levels,OVA-allergic mice [7],44%
